This note sets out measurements from the Human Domainome abundance scans (Beltran et al. 2025).

B1: Nucleosome-remodeling factor subunit BPTF, residues 2862 to 2918; numbered along this chain, Q12830 (parent)
chain: TKKDTKLYCICKTPYDESKFYIGCDRCQNWYHGRCVGILQSEAELIDEYVCPQCQST

± gives the uncertainty stated by the source.

The data set covers variants of B1. Nature of the data set: abundance fitness (aPCA) (normalised: wild type 0, dead -1); higher = more abundant; growth selection in yeast, the domain comes from the species named. Particulars: Homo sapiens.
For TKKDTKLYCICKTPYDESKFYIGCDRCQNWYHMRCVGILQSEAELIDEYVCPQCQST [G33M], the abundance fitness was -0.446 ± 0.12.

Take TKKDTKLYCICKTPYDESKFYIGCDRCQNWYHKRCVGILQSEAELIDEYVCPQCQST [G33K]: the abundance fitness is -0.271 ± 0.15.

For TKKDTKLYCICKTPYDESKFYIGCDRCQNWYHSRCVGILQSEAELIDEYVCPQCQST [G33S], the abundance fitness was -0.2 ± 0.071.

Consider TKKDTKLYCICKTPYDESKFYIGCDRCQNWYHVRCVGILQSEAELIDEYVCPQCQST [G33V], for which the abundance fitness is -0.098 ± 0.064.

On to TKKDTKLYCICKTPYDESKFYIGCDRCQNWYHTRCVGILQSEAELIDEYVCPQCQST [G33T], for which the abundance fitness is -0.238 ± 0.13.

Take TKKDTKLYCICKTPYDESKFYIGCDRCQNWYHNRCVGILQSEAELIDEYVCPQCQST [G33N]: the abundance fitness was -0.357 ± 0.2.

Turning to TKKDTKLYCICKTPYDESKFYIGCDRCQNWYHIRCVGILQSEAELIDEYVCPQCQST [G33I], the abundance fitness turned out to be 0.011 ± 0.14.

In the case of TKKDTKLYCICKTPYDESKFYIGCDRCQNWYHCRCVGILQSEAELIDEYVCPQCQST [G33C], the abundance fitness came to 0.196 ± 0.12.

In the case of TKKDTKLYCICKTPYDESKFYIGCDRCQNWYHGRHVGILQSEAELIDEYVCPQCQST [C35H], the abundance fitness is -0.764 ± 0.12.

In the case of TKKDTKLYCICKTPYDESKFYIGCDRCQNWYHGRAVGILQSEAELIDEYVCPQCQST [C35A], the abundance fitness is -0.827 ± 0.12.

For the variant TKKDTKLYCICKTPYDESKFYIGCDRCQNWYHGRKVGILQSEAELIDEYVCPQCQST [C35K], the abundance fitness is -0.915 ± 0.13.

On to TKKDTKLYCICKTPYDESKFYIGCDRCQNWYHGRPVGILQSEAELIDEYVCPQCQST [C35P], for which the abundance fitness is -0.74 ± 0.14.

TKKDTKLYCICKTPYDESKFYIGCDRCQNWYHGRNVGILQSEAELIDEYVCPQCQST [C35N]: the abundance fitness was -1.07 ± 0.18.

As for TKKDTKLYCICKTPYDESKFYIGCDRCQNWYHGRFVGILQSEAELIDEYVCPQCQST [C35F], the abundance fitness was -0.92 ± 0.12.

TKKDTKLYCICKTPYDESKFYIGCDRCQNWYHGRTVGILQSEAELIDEYVCPQCQST [C35T]: the abundance fitness was -0.933 ± 0.12.

For the variant TKKDTKLYCICKTPYDESKFYIGCDRCQNWYHGRWVGILQSEAELIDEYVCPQCQST [C35W], the abundance fitness was -0.981 ± 0.12.

On to TKKDTKLYCICKTPYDESKFYIGCDRCQNWYHGRRVGILQSEAELIDEYVCPQCQST [C35R], for which the abundance fitness was -1.01 ± 0.085.

In the case of TKKDTKLYCICKTPYDESKFYIGCDRCQNWYHGRYVGILQSEAELIDEYVCPQCQST [C35Y], the abundance fitness is -0.878 ± 0.12.

Take TKKDTKLYCICKTPYDESKFYIGCDRCQNWYHGRQVGILQSEAELIDEYVCPQCQST [C35Q]: the abundance fitness was -0.804 ± 0.11.

Take TKKDTKLYCICKTPYDESKFYIGCDRCQNWYHGRLVGILQSEAELIDEYVCPQCQST [C35L]: the abundance fitness was -0.81 ± 0.083.

TKKDTKLYCICKTPYDESKFYIGCDRCQNWYHGRMVGILQSEAELIDEYVCPQCQST [C35M]: the abundance fitness was -0.827 ± 0.13.

For the variant TKKDTKLYCICKTPYDESKFYIGCDRCQNWYHGRDVGILQSEAELIDEYVCPQCQST [C35D], the abundance fitness is -0.931 ± 0.17.

For the variant TKKDTKLYCICKTPYDESKFYIGCDRCQNWYHGRVVGILQSEAELIDEYVCPQCQST [C35V], the abundance fitness was -1.06 ± 0.15.

Consider TKKDTKLYCICKTPYDESKFYIGCDRCQNWYHGREVGILQSEAELIDEYVCPQCQST [C35E], for which the abundance fitness was -0.834 ± 0.16.

Consider TKKDTKLYCICKTPYDESKFYIGCDRCQNWYHGRGVGILQSEAELIDEYVCPQCQST [C35G], for which the abundance fitness was -0.958 ± 0.12.

For TKKDTKLYCICKTPYDESKFYIGCDRCQNWYHGRSVGILQSEAELIDEYVCPQCQST [C35S], the abundance fitness was -0.75 ± 0.076.

For TKKDTKLYCICKTPYDESKFYIGCDRCQNWYHGRCVGELQSEAELIDEYVCPQCQST [I38E], the abundance fitness was -0.44 ± 0.16.

Take TKKDTKLYCICKTPYDESKFYIGCDRCQNWYHGRCVGFLQSEAELIDEYVCPQCQST [I38F]: the abundance fitness is -0.182 ± 0.1.

Consider TKKDTKLYCICKTPYDESKFYIGCDRCQNWYHGRCVGDLQSEAELIDEYVCPQCQST [I38D], for which the abundance fitness is -0.432 ± 0.1.

Turning to TKKDTKLYCICKTPYDESKFYIGCDRCQNWYHGRCVGALQSEAELIDEYVCPQCQST [I38A], the abundance fitness is -0.452 ± 0.1.

As for TKKDTKLYCICKTPYDESKFYIGCDRCQNWYHGRCVGCLQSEAELIDEYVCPQCQST [I38C], the abundance fitness was -0.582 ± 0.098.

TKKDTKLYCICKTPYDESKFYIGCDRCQNWYHGRCDGILQSEAELIDEYVCPQCQST [V36D]: the abundance fitness is -0.801 ± 0.14.

Regarding TKKDTKLYCICKTPYDESKFYIGCDRCQNWYHGRCIGILQSEAELIDEYVCPQCQST [V36I], the abundance fitness was -0.109 ± 0.094.

Consider TKKDTKLYCICKTPYDESKFYIGCDRCQNWYHGRCWGILQSEAELIDEYVCPQCQST [V36W], for which the abundance fitness is -0.927 ± 0.22.

For TKKDTKLYCICKTPYDESKFYIGCDRCQNWYHGRCHGILQSEAELIDEYVCPQCQST [V36H], the abundance fitness is -0.785 ± 0.18.

On to TKKDTKLYCICKTPYDESKFYIGCDRCQNWYHGRCSGILQSEAELIDEYVCPQCQST [V36S], for which the abundance fitness was -0.669 ± 0.092.

Regarding TKKDTKLYCICKTPYDESKFYIGCDRCQNWYHGRCKGILQSEAELIDEYVCPQCQST [V36K], the abundance fitness is -0.531 ± 0.16.

In the case of TKKDTKLYCICKTPYDESKFYIGCDRCQNWYHGRCMGILQSEAELIDEYVCPQCQST [V36M], the abundance fitness is -0.381 ± 0.12.

With TKKDTKLYCICKTPYDESKFYIGCDRCQNWYHGRCNGILQSEAELIDEYVCPQCQST [V36N], the abundance fitness was -0.393 ± 0.13.

On to TKKDTKLYCICKTPYDESKFYIGCDRCQNWYHGRCFGILQSEAELIDEYVCPQCQST [V36F], for which the abundance fitness was -0.832 ± 0.14.

Consider TKKDTKLYCICKTPYDESKFYIGCDRCQNWYHGRCLGILQSEAELIDEYVCPQCQST [V36L], for which the abundance fitness is -0.123 ± 0.074.

Turning to TKKDTKLYCICKTPYDESKFYIGCDRCQNWYHGRCGGILQSEAELIDEYVCPQCQST [V36G], the abundance fitness was -0.863 ± 0.12.

On to TKKDTKLYCICKTPYDESKFYIGCDRCQNWYHGRCPGILQSEAELIDEYVCPQCQST [V36P], for which the abundance fitness is -0.983 ± 0.13.

In the case of TKKDTKLYCICKTPYDESKFYIGCDRCQNWYHGRCCGILQSEAELIDEYVCPQCQST [V36C], the abundance fitness is -0.572 ± 0.14.

Turning to TKKDTKLYCICKTPYDESKFYIGCDRCQNWYHGRCYGILQSEAELIDEYVCPQCQST [V36Y], the abundance fitness is -0.957 ± 0.17.

For the variant TKKDTKLYCICKTPYDESKFYIGCDRCQNWYHGRCQGILQSEAELIDEYVCPQCQST [V36Q], the abundance fitness was -0.862 ± 0.21.

For the variant TKKDTKLYCICKTPYDESKFYIGCDRCQNWYHGRCAGILQSEAELIDEYVCPQCQST [V36A], the abundance fitness was -0.565 ± 0.098.
